A short description of the data set: label from the status in PepcDB records.
Consider “MVSPQGVIVARAIISCGVASKKPFYRDQTMETDFSVHSHKGKGSLMRRKPALRLLCSAALAAALAIGAGASPGFAETKAKPEDKAVTFDPGKVNTFSGAFLAGRNADVDQDYPTAISLYKKALEYDPANSEIRQRLMIAELLSGNFEAGAKIADSMKDDTSVERVTTIVRGLDAIKDKEFTKAEKILKYTGPNDLDRMVNTLLTAWARAGSGKPKEALALVNNMKGPGWISIFQKYNAAAIALVSGNTEAARKSLNEAVTDREGGATASDTYMRAVMALARLEASAGNKQKALDAIAVGDTFAPNYAPLKALREAIEKGEKPEQQITNAVEGAASVMFSIAGALNREGAEEIVTLYLQTSRALDPKSPDTLILLGGLAEAMKQPERAITFYREVPKDSPMHRISELQLGLTLAQTGKVEESRKHLLSLLESDPKDIRSYLAYGSVLSDAKDYKAMAENYDKAVEVIGAVPQKSDWSVFFQRGIAYERLKQWDKAEPNFKRALELNPEQPQVLNYLGYSWVDKGINLDEGMKMISRAVELRPNDGYIVDSLGWAHYRLGDFDQSVTELERAIELKAGDPTINDHLGDAYWRVGRKIEAVYQWNRALIGDNDDVDKAKVKEKIANGLPPVEKDAENTAKKDVAPQPPAPPAPATPTPDKKS”, for which the protein production entry is “failed”.

As to “MVSRDFDRDKRLLTARQFSAVFDSPTGKVPGKHVLLLARENGLDHPRLGLVIGKKNVKLAVQRNRLKRLIRESFRHNQETLAGWDIVVIARKGLGELENPELHQQFGKLWKRLLRNRPRTESPADAPGVAD”, the protein production result is given as “not failed”.

Turning to “MVSSVLEVSHVFCCPNRVRGALSWNTGPGGLLAFGTSCSVVLYDPQKKVVITNLNGHTARVNCLQWIRTEDGSPSNELVSGGSENRVIHWELENNQVLKSVRLQGHEGPVCAVHAIYQSGPSEGEQHALIASAASDSTVRIWSKKGSEVKYLQTLSFRDGFVLSVCLAILPGTNVPVLACGDDDCRIHLYIQQDDQFQKALSLCGHEDWIRGVEWATFGRDLFLASCSQDCLIRIWRLYMKPASFETKDGSLRLKENTFTIKDGGVRTTVAVTLETVLAGHENWVNAVHWQPSFYKDGVLQQPVRLLSASMDKTMILWAPDEESGVWLEQVRVGEVGGNTLGFYDCQFGENGTMIIAHAFHGALHLWKQSTVNPRQWAPEIVISGHFDGVQDLMWDPEGEFIITTSTDQTTRLFAPWKKKDQKDRSQVTWHEIARPQIHGYNIKCLAMIDRFQFVSGADEKVLRVFSAPRNFVENFSVISRQSLSHMLCDDQDLPEGATVPALGLSNKALFQGDIASQPFEEDELISPAFGSPQVTFQPAVLNEPPTEDHLLQNTLWPEIQKLYGHGYEIVCVACNNSKTLLASACKASQKEHAAIILWSTASWKQVQSLAFHTLTVTQMTFSPDDKFLLAVSRDRTWSLWKRQDATSSEFDPFFSLFAFTNKITSVHSRIIWSCDWSPDNKYFFTGSRDKKVVVWGECKSSHNPMEHPIRPCSSILDVGSSVTAVSVCPVLNPAQRYIVAIGLESGKICIYSWNKTNQEINDWTSCVETNPSQSHSLGIRRLCWKSCSDDDDDDDDDDTEQSEEGPEWLHFASCGEDHTVKIYRVNRRAL”, the protein production entry was “failed”.

As for “MVSTRTHANGPADAGRTRLLFAAEIFPMNVFSRYLIRHLFLGFAAAAGLLLPLFTTFNLINELDDVSPGGYRWTQAVLVVLMTLPRTLVELSPFIALLGGIVGLGQLSKNSELTAIRSMGFSIFRIALVALVAGILWTVSLGAIDEWVASPLQQQALQIKSTATALGEDDDITGNMLWARRGNEFVTVKSLNEQGQPVGVEIFHYRDDLSLESYIYARSATIEDDKTWILHGVNHKKWLNGKETLETLDNLAWQSAFTSMDLEELSMPGNTFSVRQLNHYIHYLQETGQPSSEYRLALWEKLGQPILTLAMILLAVPFTFSAPRSPGMGSRLAVGVIVGLLTWISYQIMVNLGLLFALSAPVTALGLPIAFVLVALSLVYWYDRQH”, the protein production result was “failed”.

Turning to “MVTALARPEQTMQELAFRTLLYRYFFFDWLFKDASRGDLRERSAAWRFNQAHAHWLLTYLRRWVWCGALFCLLGGSIELMLSAPVLSAFFYVPGVLSVPINVVICVLWVGLKTLPGPM”, the protein production result was “failed”.

In the case of “MVTIKEYSVPQSLEEAYKILISKKNNVILGGCGFIKLSNKNIGTAIDLKDINLNYIKEDEKNILIGADTSLRSLEIDKTIKNYCSGILSSAVSNIVGVQFRQGARIGASVFSKYGFSDLIPALLVVGAKVRLYNKGILELSEFLDSELSRDILVEVILPKKDAIAVFDSIRKCTGDFSVLNSAMLKENDTYKIAIGARPQKARLALEASNILNKEKDIDKASIVASKELTYGSNMRASKEYRKDMASALVKRMYNAIEEGMYND”, the protein production entry was “failed”.

Take “MVTIPIFLAIIGATMMVVVWSAKQTKSAADFYTAGGGITGTQNGWAIAGDYMSAASFLGISGIISLYGYDGFMYSVGWLVAYITVLLIVAEPCRNAGKFTLGDILSFRTEPKSVRAAAAISTVAVSTFYLTAQMVGAGKLMQLLLGIPYKTAVIGVGILMVGYVVFGGMTATTWVQIIKAGLLMSGAALLSVLVGLKSGMSPFQFFNDIATSPNIIEHVQKVVLKDPVAVAGFDYGQRFLEPGLFLKNPLDQISLGMALVLGTAGMPHILMRFFTVPTAQAARKSVIIAMFIIGSFYILTTLLGFGAAIHVTPQSIMNVDKGGNMAAMMLAQQLGGDIHPFLGDLLLAFLCAVAFATILAVVSGLVLAASAAIAHDIYVNVIKGGHADQHEQVKAARITSFVVGACGIAIGIAAEKQNVAHLVALAFAVAASGNLPVVVLSLFWKKFNTAGVIAGLVTGTVVSIALVMVSPNMTYPKKVAEDAQKVVVKLEEKQAGGAVLTEKEMKDLGKAKADYEKNKDGKSFLGLDKPLFALKNPGVVSIPLGFIAAVIAALAFPSRRSEEMFDELYVRQNTGIGIAKAVDH”: the protein production entry is “failed”.

Consider “MVTPIAVVGPTASGKSALGIALAHKLDGEVVNVDSMQLYKGMDIGTAKLTVEEREGIAHHQLDVWDVTETASVARFQSDAVADVEDIMSRGKTPILVGGSMLYVQSLVDDWQFPPTDSAVRARFEARLADIGVEALHAELTQLDPEAAAVIESNDPRRTVRALEVIELTGQPFQASQPPKDAPPRWGTRIIGLKTTPEWLNPRIEQRTARMFEQGFVAEVEHLVQQGLIADSTAGRAIGYSQVLAAMAGEMTWEDAFERTVTGTRRYVRRQRSWFNRDHRVSWVDASGDPTAQALEILGLQLEHHHHHH”, for which the protein production entry is “not failed”.

Turning to “MVTPSLRLVFVKGPREGDALDYKPGSTIRVGRIVRGNEIAIKDAGISTKHLRIESDSGNWVIQDLGSSNGTLLNSNALDPETSVNLGDGDVIKLGEYTSILVNFV”, the protein production result was “not failed”.

On to “MVTSSSMRRCRGALSLSFWIFLVLRSVLSRPVFGAAAGPAVQSARQCSASRGTGESDPPPFQPTLRLFPPSRRRRSYCRAMTPSRPSPDFPDGGFVQVRGARQHNLKDISVKVPRDALVVFTGVSGSGKSSLAFGTLYAEAQRRYLESVSPYARRLFNQAGVPDVDAIDGLPPAVALQQARGTPTARSSVGSVTTLSNLLRMLYSRAGDYPPGQGIVYAEGFSPNTPEGACPECHGLGRVYTVTEDSMVPDPSLTIRERAVAAWPQAWGGQNQRDILVTLGIDVDVPWRELPEETRHWILFTDEQPVVPVYPGLTPAETQRALKKKMEPSYMGTFSSARRHVLHTFANTESASMKKRVQGYMISEECPLCHGKRLRQEALNVTFAGLDITELSRLPLARVSELLRPYAEEREPGHAERVKNRPEQAIALQRMAADLVKRLDVLLHLGLGYLGLDRSTPTLSPGELQRLRLATQLYSNLFGVVYVLDEPSAGLHPADTEALLSALENLKRGGNSLFVVEHDLDVIRRADWLVDVGPEAGEKGGEILYSGPPEGLKHVPESQTGQYLFADRHTEPHTPREPAGWLELNGVTRNNLDNLDVRFPLGVMTSVTGVSGSGKSTLVSQALVDALAAHFGQPVNPDPEDDEDPADHTAGSARLGGDLAQITRLVRVDQKPIGRTPRSNMATYTGLFDQVRKLFAATPLAKKRGYNAGRFSFNVKGGRCEHCQGEGWVMVELLFLPSVYAPCPVCHGTRYNAETLEVEYRGKNIADVLALTVDEAHDFFADESAIFRALDTLREVGLGYLRLGQPATELSGGEAQRIKLATELQRSGRGGTVYVLDEPTTGLHPADVERLQRQLVKLVDAGNTVIAVEHKMQVVAASDWVLDIGPGAGEDGGRLVAQGTPAEVAQAAGSVTAPYLRAALRLEHHHHHH”, for which the protein production entry is recorded as “failed”.

These data come from a protein production outcome set (Wang et al. 2014).
